Data taken from patent US20200308559A1, “Composition for detecting protein-protein interactions comprising fragments of secreted alkaline phosphatase (SEAP) and method for detecting protein-protein interactions using the same” (priority 2019, published 2020).

Biological target: T1, interaction (binding) between FKBP12 and FRB (Homo sapiens, UniProt P42345+P62942)
T1 construct: FLAG-FRB expression vector; expressed in transfected cells; host or cells: HEK-293T (ATCC CRL-11268)
Assay: Split SEAP fragment complementation: SEAP activity in culture supernatant (pNpp, absorbance 405 nm) after rapamycin-induced FKBP12-FRB binding
Format: cell-based
Details: HEK-293T cells, same manner as Example 2; for SEAP activity of the pair pSNA387 with pSCA380 (FIG. 6): N-terminal fragment cleaved at 387, C-terminal fragment cleaved at 379; for SEAP activity of the pair pSNA404 with pSCA388 or pSCB388 (FIG. 6): N-terminal fragment cleaved at 404, C-terminal fragment cleaved at 387; for SEAP activity of the pair pSNA418 with pSCA405 or pSCB405 (FIG. 6): N-terminal fragment cleaved at 418, C-terminal fragment cleaved at 404; for SEAP activity of the pair pSNA379 with pSCA373 or pSCB373 (FIG. 6): N-terminal fragment cleaved at 379, C-terminal fragment cleaved at 372
Procedure: HEK-293T (Human embryonic kidney cell, ATCC: CRL-11268) cells were cultured in DMEM (Dulbecco's modified Eagle's media, Gibco, Seoul, South Korea) treated with a 10% (v/v) FBS (HyClone) and 1% (v/v) penicillin/streptomycin solution (HyClone) and cultured at 37° C. in a humidified atmosphere containing 5% CO2.
HEK-293T cells were seeded at 2×10^4 cells per well in a 48-well plate and cultured until 24 hours before transformation.
For the transformation, 0.15 μL of PEI (PEI, <20,000 MW, Cat. No. 23966, Polysciences, Inc., Warrington, Pa., USA; stock solution: 4 mg/mL in ddH20, pH 7.2) was mixed with 0.2 pLg of DNA, and the mixture was vortexed for 5 seconds and then incubated for 20 minutes at 25° C. to prepare 40 μL of DNA-PEI mixture per well. At this time, the DNA was prepared by mixing a vector (pSNA series) containing a SEAP N-terminal fragment and a vector (pSCA or pSCB series) containing a SEAP C-terminal fragment.
After 24 hours of the transformation, the culture medium was replaced with DMEM with 100 nM rapamycin or DMEM without rapamycin.
SEAP activity was measured after 24 hours. The SEAP activity was measured in a time course using a p-nitrophenylphosphate (pNpp)-based absorbance (405 nm) measuring method. 80 μL of a culture medium supernatant, 100 μL of a 2× SEAP buffer solution (21% diethanolamine, 20 mM L-homoarginine, and 1 mM MgCl2, pH 9.8), and 20 μL of 120 mM pNpp were mixed and reacted with one another, and then absorbance at 405 nm was measured.

T1 sequence (P62942 whole entry): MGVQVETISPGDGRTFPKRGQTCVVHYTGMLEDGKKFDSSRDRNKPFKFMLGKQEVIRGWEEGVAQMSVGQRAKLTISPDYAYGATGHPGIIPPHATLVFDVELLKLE
T1 sequence (P42345 2012-2144): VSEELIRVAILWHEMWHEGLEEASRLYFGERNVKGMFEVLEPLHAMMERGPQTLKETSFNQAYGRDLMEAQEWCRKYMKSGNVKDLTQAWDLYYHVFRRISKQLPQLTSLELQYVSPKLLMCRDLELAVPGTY

pSNA387: HA-FKBP-snSEAP fusion: SEAP N-terminal fragment (1-387), expression vector
SEAP activity of the pair pSNA387 with pSCA380 (FIG. 6): excellent SEAP activity

pSNA404: HA-FKBP-snSEAP fusion: SEAP N-terminal fragment (1-404), expression vector
SEAP activity of the pair pSNA404 with pSCA388 or pSCB388 (FIG. 6): excellent SEAP activity

pSNA418: HA-FKBP-snSEAP fusion: SEAP N-terminal fragment (1-418), expression vector
SEAP activity of the pair pSNA418 with pSCA405 or pSCB405 (FIG. 6): excellent SEAP activity

pSNA379: HA-FKBP-snSEAP fusion: SEAP N-terminal fragment (1-379) fused to C-terminal of FKBP12, expression vector
SEAP activity of the pair pSNA379 with pSCA373 or pSCB373 (FIG. 6): excellent SEAP activity

B1: pSCA405: FLAG-FRB-scSEAP fusion: SEAP C-terminal fragment (405-502), cleaved at position 404, expression vector (protein)
chain: ILWHEMWHEGLEEASRLYFGERNVKGMFEVLEPLHAMMERGPQTLKETSFNQAYGRDLMEAQEWCRKYMKSGNVKDLTQAWDLYYHVFRRISKKGSGSTSGSGARPDVTESESGSPEYRQQSAVPLDEETHAGEDVAVFARGPQAHLVHGVQEQTFIAHVMAFAACLEPYTACDLAPPAGTTDAAHPGYSRVGAAGRFEQT
modifications: left off: small tags and cut ends
notes: FLAG-FRB-scSEAP fusion: SEAP C-terminal fragment (405-502), cleaved at position 404, expression vector
SEAP activity of the pair pSNA418 with pSCA405 or pSCB405 (FIG. 6): excellent SEAP activity

B2: pSCA388: FLAG-FRB-scSEAP fusion: SEAP C-terminal fragment (388-502), cleaved at position 387, expression vector (protein)
chain: ILWHEMWHEGLEEASRLYFGERNVKGMFEVLEPLHAMMERGPQTLKETSFNQAYGRDLMEAQEWCRKYMKSGNVKDLTQAWDLYYHVFRRISKKGSGSTSGSGYTVLLYGNGPGYVLKDGARPDVTESESGSPEYRQQSAVPLDEETHAGEDVAVFARGPQAHLVHGVQEQTFIAHVMAFAACLEPYTACDLAPPAGTTDAAHPGYSRVGAAGRFEQT
modifications: left off: small tags and cut ends
notes: FLAG-FRB-scSEAP fusion: SEAP C-terminal fragment (388-502), cleaved at position 387, expression vector
SEAP activity of the pair pSNA404 with pSCA388 or pSCB388 (FIG. 6): excellent SEAP activity

B3: pSCA380: FLAG-FRB-scSEAP fusion: SEAP C-terminal fragment (380-502), cleaved at position 379, expression vector (protein)
chain: ILWHEMWHEGLEEASRLYFGERNVKGMFEVLEPLHAMMERGPQTLKETSFNQAYGRDLMEAQEWCRKYMKSGNVKDLTQAWDLYYHVFRRISKKGSGSTSGSGGKARDRKAYTVLLYGNGPGYVLKDGARPDVTESESGSPEYRQQSAVPLDEETHAGEDVAVFARGPQAHLVHGVQEQTFIAHVMAFAACLEPYTACDLAPPAGTTDAAHPGYSRVGAAGRFEQT
modifications: left off: small tags and cut ends
notes: FLAG-FRB-scSEAP fusion: SEAP C-terminal fragment (380-502), cleaved at position 379, expression vector
SEAP activity of the pair pSNA387 with pSCA380 (FIG. 6): excellent SEAP activity

B4: pSCB405: scSEAP-FRB-FLAG fusion: SEAP C-terminal fragment (405-502), cleaved at position 404, expression vector (protein)
chain: ARPDVTESESGSPEYRQQSAVPLDEETHAGEDVAVFARGPQAHLVHGVQEQTFIAHVMAFAACLEPYTACDLAPPAGTTDAAHPGYSRVGAAGRFEQTKGSGSTSGSGILWHEMWHEGLEEASRLYFGERNVKGMFEVLEPLHAMMERGPQTLKETSFNQAYGRDLMEAQEWCRKYMKSGNVKDLTQAWDLYYHVFRRISK
modifications: left off: small tags and cut ends
notes: scSEAP-FRB-FLAG fusion: SEAP C-terminal fragment (405-502), cleaved at position 404, expression vector
SEAP activity of the pair pSNA418 with pSCA405 or pSCB405 (FIG. 6): excellent SEAP activity

B5: pSCA373: FLAG-FRB-scSEAP fusion: SEAP C-terminal fragment (373-502), cleaved at position 372, expression vector (protein)
chain: ILWHEMWHEGLEEASRLYFGERNVKGMFEVLEPLHAMMERGPQTLKETSFNQAYGRDLMEAQEWCRKYMKSGNVKDLTQAWDLYYHVFRRISKKGSGSTSGSGSIFGLAPGKARDRKAYTVLLYGNGPGYVLKDGARPDVTESESGSPEYRQQSAVPLDEETHAGEDVAVFARGPQAHLVHGVQEQTFIAHVMAFAACLEPYTACDLAPPAGTTDAAHPGYSRVGAAGRFEQT
modifications: left off: small tags and cut ends
notes: FLAG-FRB-scSEAP fusion: SEAP C-terminal fragment (373-502), cleaved at position 372, expression vector
SEAP activity of the pair pSNA379 with pSCA373 or pSCB373 (FIG. 6): excellent SEAP activity

B6: pSCB373: scSEAP-FRB-FLAG fusion: SEAP C-terminal fragment (373-502), cleaved at position 372, expression vector (protein)
chain: SIFGLAPGKARDRKAYTVLLYGNGPGYVLKDGARPDVTESESGSPEYRQQSAVPLDEETHAGEDVAVFARGPQAHLVHGVQEQTFIAHVMAFAACLEPYTACDLAPPAGTTDAAHPGYSRVGAAGRFEQTKGSGSTSGSGILWHEMWHEGLEEASRLYFGERNVKGMFEVLEPLHAMMERGPQTLKETSFNQAYGRDLMEAQEWCRKYMKSGNVKDLTQAWDLYYHVFRRISK
modifications: left off: small tags and cut ends
notes: scSEAP-FRB-FLAG fusion: SEAP C-terminal fragment (373-502), cleaved at position 372, expression vector
SEAP activity of the pair pSNA379 with pSCA373 or pSCB373 (FIG. 6): excellent SEAP activity

B7: pSCB388: scSEAP-FRB-FLAG fusion: SEAP C-terminal fragment (388-502), cleaved at position 387, expression vector (protein)
chain: YTVLLYGNGPGYVLKDGARPDVTESESGSPEYRQQSAVPLDEETHAGEDVAVFARGPQAHLVHGVQEQTFIAHVMAFAACLEPYTACDLAPPAGTTDAAHPGYSRVGAAGRFEQTKGSGSTSGSGILWHEMWHEGLEEASRLYFGERNVKGMFEVLEPLHAMMERGPQTLKETSFNQAYGRDLMEAQEWCRKYMKSGNVKDLTQAWDLYYHVFRRISK
modifications: left off: small tags and cut ends
notes: scSEAP-FRB-FLAG fusion: SEAP C-terminal fragment (388-502), cleaved at position 387, expression vector
SEAP activity of the pair pSNA404 with pSCA388 or pSCB388 (FIG. 6): excellent SEAP activity
